The test system of this series is K562 CRISPRi cells. Description: Constant region variant library pooled growth screen, K562. Type of series: cell-based, human. As to conditions: sgRNA constant region variants; activity relative to the original, un-modified constant region cr995. In a few lines: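 Growth screens in K562 CRISPRi cells were harvested 4-8 days post-selection at >2000× library coverage. Each variant's phenotype was referenced to the unmodified constant region with the same targeting sequence.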

Positions count from the first letter of the chain named.

These results are taken from patent US20220259593A1, “CONTROL OF MAMMALIAN GENE DOSAGE USING CRISPR” (The Regents of the University of California, priority 2019, published 2022).

B1: cr909 (nucleic acid)
guide: GTTTAAGAGCTAAGCTGGAAACAGCATATCAAGTTTAAATAAGGCTAGTCCGTGATCAACTTGTAAAAGTGGCACCGAGTCGGTGCT
modifications: listed as DNA, chemistry not fully specified
In the case of B1, the Mean relative activity was determined as 0.8864.

B2: cr878 (nucleic acid)
guide: B1 guide with T29G, C45T, G48A, G54T, C60T, T64A, G69A, C75T, G83A
modifications: listed as DNA, chemistry not fully specified
B2: the Mean relative activity stood at 0.847.

B3: cr676 (nucleic acid)
guide: B1 guide with T29G, G54T, T64G, G71T
modifications: listed as DNA, chemistry not fully specified
Molecule B3 had a Mean relative activity of 0.8506.

B4: cr617 (nucleic acid)
guide: B1 guide with T29G, C45T, G48A, G54T, A59G, T61G, T64A, A68C, T70C
modifications: listed as DNA, chemistry not fully specified
B4 showed a Mean relative activity of 1.058.

B5: cr984 (nucleic acid)
guide: B1 guide with T29G, G54T, T64A, C86G
modifications: listed as DNA, chemistry not fully specified
B5 registered a Mean relative activity of 0.8858.

B6: cr943 (nucleic acid)
guide: B1 guide with T29G, G54T, T64A, G72A, C75A, G83T, C86T
modifications: listed as DNA, chemistry not fully specified
Molecule B6 returned a Mean relative activity of 0.8464.

B7: cr749 (nucleic acid)
guide: B1 guide with T29G, A31G, G54C, T64A, A78C
modifications: listed as DNA, chemistry not fully specified
In turn, B7 had a Mean relative activity of 0.8857.

B8: cr891 (nucleic acid)
guide: B1 guide with T29G, G44A, C50T, G54T, T64A, C73T, G85A
modifications: listed as DNA, chemistry not fully specified
B8 yielded a Mean relative activity of 0.8641.

B9: cr788 (nucleic acid)
guide: B1 guide with G54T, T64A
modifications: listed as DNA, chemistry not fully specified
B9 gave a Mean relative activity of 0.8617.

B10: cr899 (nucleic acid)
guide: B1 guide with T29G, G44A, C50T, G54T, A59G, T64A, T70C, C73T, G85A
modifications: listed as DNA, chemistry not fully specified
Take B10: the Mean relative activity turned out to be 0.8583.

B11: cr865 (nucleic acid)
guide: B1 guide with T29G, G54T, A59T, T64A
modifications: listed as DNA, chemistry not fully specified
The molecule B11 returned a Mean relative activity of 0.8637.

B12: cr781 (nucleic acid)
guide: B1 guide with T29G, G54T, T64A, G85C
modifications: listed as DNA, chemistry not fully specified
In turn, B12 had a Mean relative activity of 0.8813.

B13: cr991 (nucleic acid)
guide: B1 guide with T29G, T53A, G54T, T64A, A65C
modifications: listed as DNA, chemistry not fully specified
As to B13, the Mean relative activity is on record as 0.8694.

B14: cr717 (nucleic acid)
guide: B1 guide with T29G, C45T, G48A, G54T, A59G, T64A, T70C
modifications: listed as DNA, chemistry not fully specified
The molecule B14 returned a Mean relative activity of 1.056.

B15: cr768 (nucleic acid)
guide: B1 guide with T29G, G54T, T64A, T80C
modifications: listed as DNA, chemistry not fully specified
Turning to B15, the Mean relative activity turned out to be 0.8788.

B16: cr692 (nucleic acid)
guide: B1 guide with G17A, T29G, G54T, T64A
modifications: listed as DNA, chemistry not fully specified
B16: the Mean relative activity is 0.8665.

B17: cr414 (nucleic acid)
guide: B1 guide with T29G, G54T, T64A, A74T
modifications: listed as DNA, chemistry not fully specified
Molecule B17 had a Mean relative activity of 0.8852.

B18: cr688 (nucleic acid)
guide: B1 guide with T29G, G54T, T64A, A65T, T80C
modifications: listed as DNA, chemistry not fully specified
Regarding B18, the Mean relative activity came to 0.848.

B19: cr806 (nucleic acid)
guide: B1 guide with T29G, A42G, G54T, T64A
modifications: listed as DNA, chemistry not fully specified
In turn, B19 came in with a Mean relative activity of 0.8861.

B20: cr286 (nucleic acid)
guide: B1 guide with T29G, T46G, G54T, T64A, A65G
modifications: listed as DNA, chemistry not fully specified
Turning to B20, the Mean relative activity is on record as 0.885.

B21: cr153 (nucleic acid)
guide: B1 guide with T29G, G54T, C60A, T61A, T64A, A68T, G69T
modifications: listed as DNA, chemistry not fully specified
Turning to B21, the Mean relative activity amounted to 0.8735.

B22: cr358 (nucleic acid)
guide: B1 guide with T29G, C45T, G48A, G54T, C60G, T64A, G69C, C76T, G82A
modifications: listed as DNA, chemistry not fully specified
B22 had a Mean relative activity of 0.886.

B23: cr960 (nucleic acid)
guide: B1 guide with T29G, G54T, A59T, C60A, T64A, G69T, T70A
modifications: listed as DNA, chemistry not fully specified
As for B23, the Mean relative activity worked out at 0.8446.

B24: cr829 (nucleic acid)
guide: B1 guide with T29C, G54T, T64A
modifications: listed as DNA, chemistry not fully specified
Molecule B24 returned a Mean relative activity of 0.8571.

B25: cr216 (nucleic acid)
guide: B1 guide with T29G, G44A, C50T, G54T, T64A
modifications: listed as DNA, chemistry not fully specified
In the case of B25, the Mean relative activity is on record as 0.8652.

B26: cr729 (nucleic acid)
guide: B1 guide with C22T, T29G, G54T, T64A
modifications: listed as DNA, chemistry not fully specified
For the molecule B26, the Mean relative activity worked out at 0.8793.

B27: cr495 (nucleic acid)
guide: B1 guide with T29G, G54T, T64A, T80A
modifications: listed as DNA, chemistry not fully specified
B27 displayed a Mean relative activity of 0.8462.

B28: cr105 (nucleic acid)
guide: B1 guide with T29G, T46C, G54T, T64A, A65C
modifications: listed as DNA, chemistry not fully specified
As for B28, the Mean relative activity is given as 0.8672.

B29: cr396 (nucleic acid)
guide: B1 guide with T29G, G54T, T64A, C75A, G77A, C81T, G83T
modifications: listed as DNA, chemistry not fully specified
B29 returned a Mean relative activity of 0.8826.

B30: cr914 (nucleic acid)
guide: B1 guide with T29G, G44A, C50T, G54T, T64A, C73G, G85C
modifications: listed as DNA, chemistry not fully specified
In turn, B30 returned a Mean relative activity of 0.8494.

B31: cr260 (nucleic acid)
guide: B1 guide with T29G, T53A, G54T, T64A
modifications: listed as DNA, chemistry not fully specified
In turn, B31 yielded a Mean relative activity of 0.874.

B32: cr643 (nucleic acid)
guide: B1 guide with T29G, G44A, C50T, G54T, A59G, T64A, T70C, C75T, G83A
modifications: listed as DNA, chemistry not fully specified
B32 returned a Mean relative activity of 0.865.

B33: cr169 (nucleic acid)
guide: B1 guide with T29G, G54T, T64A, A65G, T80C
modifications: listed as DNA, chemistry not fully specified
As to B33, the Mean relative activity stood at 0.8454.

B34: cr759 (nucleic acid)
guide: B1 guide with T29G, A47C, G54T, T64A, A65G
modifications: listed as DNA, chemistry not fully specified
In turn, B34 showed a Mean relative activity of 0.8842.

B35: cr184 (nucleic acid)
guide: B1 guide with T29G, T53G, G54T, T64G
modifications: listed as DNA, chemistry not fully specified
For the molecule B35, the Mean relative activity was found to be 0.8653.

B36: cr236 (nucleic acid)
guide: B1 guide with G24A, T29G, G54T, T64A
modifications: listed as DNA, chemistry not fully specified
For the molecule B36, the Mean relative activity worked out at 0.8745.

B37: cr521 (nucleic acid)
guide: B1 guide with T29G, A47G, G54T, T64A, A78T
modifications: listed as DNA, chemistry not fully specified
For B37, the Mean relative activity amounted to 0.8638.

B38: cr022 (nucleic acid)
guide: B1 guide with A8T, T29G, G54T, T64A
modifications: listed as DNA, chemistry not fully specified
In turn, B38 came in with a Mean relative activity of 1.058.

B39: cr869 (nucleic acid)
guide: B1 guide with T29G, G54T, T64A, T70A
modifications: listed as DNA, chemistry not fully specified
Consider B39, for which the Mean relative activity amounted to 0.8861.
